Measured values published in publication PMC1783898.

Biological target: SARS-CoV main protease, full-length wild type (3CLpro) (SARS-CoV) (UniProt P0C6X7)
Test: AUC

## SARS-CoV main protease, full-length wild type (3CLpro) (from UniProt P0C6X7) (enzyme)
  stoichiometry N: 2
